Residue numbers refer to the chain shown, from its start. In names and notes the source's numbering stands.

The values below come from PMC6774396 (Frontiers in Immunology, 2019).

Test [1] addresses moesin FERM domain, 1-297 (UniProt P26038). Kind of test: SPR competition assay.
Test [2] has as its system THP-1 cells over TNF-α-activated HUVEC. Nature of the test: L-selectin-GFP/RFP clustering in mid-TEM under flow, FLIM/FRET. The class given is cell-based, human. As to the method:
(A) Line scanning confocal microscopic image of THP-1 cells, stably expressing GFP, captured in mid-TEM—following 15 min of perfusion over TNF-α-activated HUVEC monolayers. […] “Top” and “Base,” respectively, represent the apical and basolateral aspect of the endothelium (x63 objective lens, Leica SP5). Scale bar = 24 μm. (B,C) THP-1 cells expressing WT, SSAA, or SSDD L-selectin-GFP/RFP were perfused over TNF-α-activated HUVEC and fixed after 15 min of perfusion. […] Lifetime images taken of at least 45 cells and analyzed over 3 independent experiments was quantified and expressed as FRET efficiency. Images representative of three independent experiments, where at least 45 cells of each group was analyzed at two optical sections, Top and Base, as indicated in the cartoon of a yellow monocyte captured in mid-TEM crossing a red endothelium. Individual GFP channel and lifetime images are provided for each cell line. The lifetime of fluorescence is expressed in a pseudocolour scale from red (low lifetime with a very high probability of interaction) to blue (high lifetime with a very low probability of interaction). Statistics: unpaired student t-test ***p ≤ 0.001.
Cells expressing WT L-selectin-GFP/RFP were treated for 30 min with 10 μM TAPI-0 and subsequently perfused over TNF-activated HUVEC monolayers for 15 min prior to fixation and analysis for FRET by FLIM (see Materials and Methods for more detail). […] (B) Images representative of three independent experiments, where at least 45 cells of each group were analyzed at two optical sections–non-transmigrated uropods (Top) and transmigrated pseudopods (Base). GFP fluorescence channel and lifetime images are provided for each cell line. The lifetime of fluorescence is expressed in a pseudocolour scale from red (low lifetime with a very high probability of interaction) to blue (high lifetime with a very low probability of interaction). […]
FLIM measurement of FRET was performed with a multiphoton microscope system as described previously ([8], [23]). […] Fluorescence lifetime imaging capability was provided by time-correlated, single-photon counting electronics (SPC 700; Becker & Hickl). […] Data were analyzed as previously described ([65]). The FRET efficiency is related to the molecular separation of donor and acceptor and the fluorescence lifetime of the interacting fraction by: […]
where ηFRET is the FRET efficiency, R0 is the Förster radius, r is the molecular separation, τFRET is the lifetime of the interacting fraction and τd is the lifetime of the donor in the absence of an acceptor. The donor- only control is used as the reference against which all of other lifetimes are calculated in each experiment. τFRET and τd can also be taken to be the lifetime of the interacting fraction and non-interacting fraction, respectively. […]

The test system is the same in test [3]. Kind of test: Pseudopod protrusion scoring in TEM under flow. The class given is cell-based, human. On the procedure: (A) The number of protrusions formed over this period was scored as: zero, one, two, or >2. (B) The percentages of cells bearing these protrusions were scored at specific time points: 6 min (blue bars), 15 min (green bars), or 25 min (red bars). Supplementary Videos 2, 3, 4 provide examples of cells producing a range of protrusions as TEM proceeds. Data represent SEM of 3 fields of view per flow experiment, conducted on three separate occasions, and at least 180 cells analyzed per group. Values of the vertical lines indicate the differences in protrusion number (specifically “zero” and “two”) corresponding to each of the cell lines, for which statistical significance is shown in Table 1.
All flow experiments were performed using a 35 mm diameter Glycotech parallel plate flow chamber. Perfusion experiments were performed at 1.5 dyn/cm^2 using a Harvard Apparatus 2000 PHD syringe pump. Perfusion media consisted of: RPMI supplemented with L-glutamine, 10% FCS, 1% penicillin/streptomycin, 50 μM β-mercaptoethanol, and 25 mM HEPES. Human Umbilical Vein Endothelial Cells (HUVEC–Lonza) were seeded onto 35 mm diameter glass coverslips (no. 1 thickness; VWR) that were pre-coated with 10 μg/mL fibronectin (37°C for at least 1 h). Before each perfusion assay, HUVEC were stimulated overnight (16 h) with 10 ng/mL carrier-free recombinant human TNF-α (R&D Systems). Each perfusion assay was performed by injecting a bolus of cells for 6 min, followed by just perfusion media (without cells) for the […]. THP-1 cells were perfused at a density of 0.5 ×10^6 cells per mL. THP-1 cells treated with 10 μM TAPI-0 required a preincubation time of 10 min at 37°C before perfusion over TNF-α-activated HUVEC. Note that 10 μM TAPI-0 was also supplemented in the perfusate. Stills were acquired once every 10 seconds using 10 × objective lens.

In the case of “L-selectin cytoplasmic tail, 356-372 (from UniProt P14151) pS364 tail peptide”, the “binding against the reference” value in test [1] (reference: non-phosphorylated tail peptide (NPP), sites S364) is given as “lost”.
As to `CC(C)C[C@H](CC(=O)NO)C(=O)N[C@@H](Cc1ccc2ccccc2c1)C(=O)N[C@@H](C)C(N)=O` [TAPI-0, reference compound], the “subcellular distribution of WT L-selectin clustering during TEM with sheddase inhibitor” value in test [2] (10 μM TAPI-0 pretreatment and in perfusate, WT L-selectin-GFP/RFP, 15 min perfusion) was “a large majority of L-selectin clustering had relocated from transmigrated pseudopods to non-transmigrated uropods”.
For the molecule “L-selectin cytoplasmic tail, 356-372 (from UniProt P14151) pS367 tail peptide”, the “binding against the reference” value in test [1] (reference: non-phosphorylated tail peptide (NPP), sites S367) was “same”.
In the case of “mouse L-selectin cytoplasmic tail (from UniProt P18337) mouse pS364 tail peptide”, in test [1] (reference: mouse non-phosphorylated tail peptide (NPP), sites S364), the “binding against the reference” value is “lost”.

B1: SSDD: L-selectin with phospho-mimicking aspartates at Ser^364 and Ser^367 (protein)
chain: WTYHYSEKPMNWQRARRFCRDNYTDLVAIQNKAEIEYLEKTLPFSRSYYWIGIRKIGGIWTWVGTNKSLTEEAENWGDGEPNNKKNKEDCVEIYIKRNKDAGKWNDDACHKLKAALCYTASCQPWSCSGHGECVEIINNYTCNCDVGYYGPQCQFVIQCEPLEAPELGTMDCTHPLGNFSFSSQCAFSCSEGTNLTGIEETTCGPFGNWSSPEPTCQVIQCEPLSAPDLGIMNCSHPLASFSFTSACTFICSEGTELIGKKKTICESSGIWSNPSPICQKLDKSFSMIKEGDYNPLFIPVAVMVTAFSGLAFIIWLARRLKKGKKDKRDMNDPY
modifications: left off: eGFP (donor copy) or mCherry (acceptor copy, called RFP), C-terminal, kept
With B1, in test [2] (15 min perfusion at 1.5 dyn/cm^2, fixed in mid-TEM, Top = non-transmigrated uropods, Base = transmigrated pseudopods, at least 45 cells, 3 experiments, no TAPI-0), the “subcellular distribution of L-selectin clustering during TEM (FLIM/FRET)” value is recorded as “lacked any signs of clustering during TEM”.

B2: S364A: L-selectin with Ser^364 mutated to alanine, GFP-tagged, expressed in THP-1 cells (protein, UniProt P14151 39-372, looked up, variant S364A)
L-selectin: B1 chain with D326A, D329S
modifications: C-terminal GFP tag
For B2, the “protrusive activity profile in TEM (in words)” value in test [3] (6, 15 and 25 min of flow over TNF-α-activated HUVEC) is on record as “produced a profile of protrusive activity that was similar to cells expressing WT L-selectin”. Moreover, the “cells with 2 protrusions” value in test [3] (15 min time point, mean of 3 fields of view per flow experiment, three occasions, at least 180 cells per group, significance ** S367A p ≤ 0.01 (Tukey), % printed) is recorded as 32.9%. Also, in test [3] (15 min time point, mean of 3 fields of view per flow experiment, three occasions, at least 180 cells per group, significance *** S367A p ≤ 0.001, ** SSAA p ≤ 0.01 (Tukey), % printed), the “cells with 0 protrusions” value is given as 11.3%.
